Measured values reported in publication PMC10397247.

What was measured:
Assay in all cases: two-hybrid library CCNG1;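 also: natural log of median RNA to DNA barcode read ratio; higher means stronger binding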
4H2233-bH = target: T1, 4H2233-bH
T1 chain: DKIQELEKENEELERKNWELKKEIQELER

4H2444-bH = target: T2, 4H2444-bH
T2 chain: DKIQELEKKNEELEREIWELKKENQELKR

4H3297-bH = target: T3, 4H3297-bH
T3 chain: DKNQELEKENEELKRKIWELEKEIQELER

4H2931-bH = target: T4, 4H2931-bH
T4 chain: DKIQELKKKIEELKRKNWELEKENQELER

4H2760-bH = target: T5, 4H2760-bH
T5 chain: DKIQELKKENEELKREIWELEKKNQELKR

4H2162-bH = target: T6, 4H2162-bH
T6 chain: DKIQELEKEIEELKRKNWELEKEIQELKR

4H56-bH = target: T7, 4H56-bH
T7 chain: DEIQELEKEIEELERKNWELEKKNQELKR

4H730-bH = target: T8, 4H730-bH
T8 chain: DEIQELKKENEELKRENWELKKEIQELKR

4H264-bH = target: T9, 4H264-bH
T9 chain: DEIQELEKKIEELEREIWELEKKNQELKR

4H932-bH = target: T10, 4H932-bH
T10 chain: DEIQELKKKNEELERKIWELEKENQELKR

4H2859-bH = target: T11, 4H2859-bH
T11 chain: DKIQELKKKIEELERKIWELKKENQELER

4H796-bH = target: T12, 4H796-bH
T12 chain: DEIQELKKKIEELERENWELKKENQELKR

4H949-bH = target: T13, 4H949-bH
T13 chain: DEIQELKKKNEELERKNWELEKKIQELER

4H3364-bH = target: T14, 4H3364-bH
T14 chain: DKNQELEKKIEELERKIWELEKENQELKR

4H235-bH = target: T15, 4H235-bH
T15 chain: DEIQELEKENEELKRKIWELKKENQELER

4H3041-bH = target: T16, 4H3041-bH
T16 chain: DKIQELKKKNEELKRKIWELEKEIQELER

4H264-bA = target: T17, 4H264-bA
T17 chain: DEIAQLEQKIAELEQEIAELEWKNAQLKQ

4H3381-bH = target: T18, 4H3381-bH
T18 chain: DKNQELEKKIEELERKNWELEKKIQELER

4H2585-bH = target: T19, 4H2585-bH
T19 chain: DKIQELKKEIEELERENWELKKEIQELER

4H2518-bH = target: T20, 4H2518-bH
T20 chain: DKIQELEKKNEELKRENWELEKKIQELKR

4H2253-bH = target: T21, 4H2253-bH
T21 chain: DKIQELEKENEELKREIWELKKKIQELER

4H349-bH = target: T22, 4H349-bH
T22 chain: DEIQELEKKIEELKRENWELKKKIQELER

4H338-bA = target: T23, 4H338-bA
T23 chain: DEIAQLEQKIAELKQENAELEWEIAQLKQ

4H607-bA = target: T24, 4H607-bA
T24 chain: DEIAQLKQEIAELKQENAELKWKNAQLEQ

4H717-bA = target: T25, 4H717-bA
T25 chain: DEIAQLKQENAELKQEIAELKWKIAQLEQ

4H754-bA = target: T26, 4H754-bA
T26 chain: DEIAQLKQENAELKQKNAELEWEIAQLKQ

4H967-bA = target: T27, 4H967-bA
T27 chain: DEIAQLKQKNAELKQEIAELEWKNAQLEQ

4H1845-bA = target: T28, 4H1845-bA
T28 chain: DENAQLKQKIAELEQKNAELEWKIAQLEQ

4H72-bA = target: T29, 4H72-bA
T29 chain: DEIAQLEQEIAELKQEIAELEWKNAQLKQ

4H3606-bA = target: T30, 4H3606-bA
T30 chain: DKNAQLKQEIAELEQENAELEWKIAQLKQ

4H3782-bA = target: T31, 4H3782-bA
T31 chain: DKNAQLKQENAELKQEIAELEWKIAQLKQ

4H797-bA = target: T32, 4H797-bA
T32 chain: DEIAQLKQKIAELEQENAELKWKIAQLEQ

4H3112-bA = target: T33, 4H3112-bA
T33 chain: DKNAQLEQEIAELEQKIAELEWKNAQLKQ

4H687-bA = target: T34, 4H687-bA
T34 chain: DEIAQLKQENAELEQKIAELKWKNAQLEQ

4H918-bA = target: T35, 4H918-bA
T35 chain: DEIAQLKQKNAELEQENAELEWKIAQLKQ

4H462-bA = target: T36, 4H462-bA
T36 chain: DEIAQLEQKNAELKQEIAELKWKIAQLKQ

4H3855-bA = target: T37, 4H3855-bA
T37 chain: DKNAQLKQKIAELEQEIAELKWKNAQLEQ

4H1828-bA = target: T38, 4H1828-bA
T38 chain: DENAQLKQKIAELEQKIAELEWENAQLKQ

4H2442-bA = target: T39, 4H2442-bA
T39 chain: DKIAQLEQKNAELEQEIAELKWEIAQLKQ

4H331-bA = target: T40, 4H331-bA
T40 chain: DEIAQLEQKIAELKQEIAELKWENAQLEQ

4H2576-bA = target: T41, 4H2576-bA
T41 chain: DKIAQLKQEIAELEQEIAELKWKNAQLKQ

4H908-bA = target: T42, 4H908-bA
T42 chain: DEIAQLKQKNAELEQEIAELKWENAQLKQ

4H3843-bA = target: T43, 4H3843-bA
T43 chain: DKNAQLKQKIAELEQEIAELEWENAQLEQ

4H370-bA = target: T44, 4H370-bA
T44 chain: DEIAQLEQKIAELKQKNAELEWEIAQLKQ

4H883-bA = target: T45, 4H883-bA
T45 chain: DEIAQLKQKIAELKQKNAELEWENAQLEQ

4H3189-bA = target: T46, 4H3189-bA
T46 chain: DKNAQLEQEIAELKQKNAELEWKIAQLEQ

4H2618-bA = target: T47, 4H2618-bA
T47 chain: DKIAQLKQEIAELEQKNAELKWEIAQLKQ

4H3427-bA = target: T48, 4H3427-bA
T48 chain: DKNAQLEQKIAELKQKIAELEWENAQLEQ

4H4001-bA = target: T49, 4H4001-bA
T49 chain: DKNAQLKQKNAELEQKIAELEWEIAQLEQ

4H568-bA = target: T50, 4H568-bA
T50 chain: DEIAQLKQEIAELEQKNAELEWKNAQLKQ

4H3354-bA = target: T51, 4H3354-bA
T51 chain: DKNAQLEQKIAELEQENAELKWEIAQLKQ

4H953-bA = target: T52, 4H953-bA
T52 chain: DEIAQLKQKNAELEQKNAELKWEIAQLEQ

4H2667-bA = target: T53, 4H2667-bA
T53 chain: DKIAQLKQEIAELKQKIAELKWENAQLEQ

4H2697-bA = target: T54, 4H2697-bA
T54 chain: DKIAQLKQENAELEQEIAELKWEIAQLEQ

4H2610-bA = target: T55, 4H2610-bA
T55 chain: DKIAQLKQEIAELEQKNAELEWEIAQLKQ

4H454-bA = target: T56, 4H454-bA
T56 chain: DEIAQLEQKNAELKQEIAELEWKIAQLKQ

4H3185-bA = target: T57, 4H3185-bA
T57 chain: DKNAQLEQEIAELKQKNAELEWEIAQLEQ

4H1446-bA = target: T58, 4H1446-bA
T58 chain: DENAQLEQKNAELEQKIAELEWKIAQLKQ

4H2729-bA = target: T59, 4H2729-bA
T59 chain: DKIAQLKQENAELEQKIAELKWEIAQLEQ

DKIQELEKEIEELKRKNWELEKEIQELKR [4H2162-bH]
interaction score (4H2233-bH): 0.284 | interaction score (4H2444-bH): 0.28 | interaction score (4H3297-bH): 0.0958 | interaction score (4H2931-bH): 0.798 | interaction score (4H2760-bH): 0.202 | interaction score (4H2162-bH): 0.161 | interaction score (4H56-bH): 0.668 | interaction score (4H730-bH): -1.99 | interaction score (4H264-bH): 0.0138 | interaction score (4H932-bH): -0.531 | interaction score (4H2859-bH): 0.783 | interaction score (4H796-bH): -0.188 | interaction score (4H949-bH): -1.64 | interaction score (4H3364-bH): 0.498 | interaction score (4H235-bH): 0.377 | interaction score (4H3041-bH): 0.641 | interaction score (4H264-bA): 0.1 | interaction score (4H3381-bH): 0.0641 | interaction score (4H2585-bH): 0.942 | interaction score (4H2518-bH): 1 | interaction score (4H2253-bH): -0.234 | interaction score (4H349-bH): 0.54

DENAQLEQKNAELEQKIAELEWKIAQLKQ [4H1446-bA]
interaction score (4H338-bA): -0.241 | interaction score (4H607-bA): -0.535 | interaction score (4H717-bA): -0.295 | interaction score (4H754-bA): -0.817 | interaction score (4H967-bA): -0.635 | interaction score (4H1845-bA): -0.389 | interaction score (4H72-bA): 1.16 | interaction score (4H3606-bA): 0.144 | interaction score (4H3782-bA): 0.586 | interaction score (4H797-bA): -1.42 | interaction score (4H3112-bA): 0.505 | interaction score (4H687-bA): -0.607 | interaction score (4H918-bA): -0.0235 | interaction score (4H462-bA): -0.194 | interaction score (4H3855-bA): 0.209 | interaction score (4H1828-bA): -0.523 | interaction score (4H2442-bA): -1.04 | interaction score (4H331-bA): 1.79 | interaction score (4H2576-bA): 1.12 | interaction score (4H908-bA): -0.405 | interaction score (4H3843-bA): 2.01 | interaction score (4H370-bA): 0.183 | interaction score (4H883-bA): 0.0122 | interaction score (4H3189-bA): -0.621 | interaction score (4H2618-bA): 0.00602 | interaction score (4H3427-bA): 0.256 | interaction score (4H4001-bA): 1.86 | interaction score (4H568-bA): -0.418 | interaction score (4H3354-bA): -0.413 | interaction score (4H953-bA): -0.416 | interaction score (4H2667-bA): 0.0853 | interaction score (4H2697-bA): -0.0949 | interaction score (4H2610-bA): -0.647 | interaction score (4H454-bA): -0.131 | interaction score (4H3185-bA): -0.0587 | interaction score (4H1446-bA): 0.569 | interaction score (4H2729-bA): 1.08
